For the data set, the target named is hTop2βcore (human topoisomerase IIβ catalytic core) (human, UniProt Q02880 450-1206). As to the kind of experiment: X-ray crystallography (2.54 Å); 100 mM MgCl2; crystallized with 2 mM compound C-Bi (not visible in the structure); cleavage complex; Crystallization: protein and DNA (1.2-fold molar ratio to protein) with 2 mM C-Bi; reservoir 100 mM MgCl2, 50 mM sodium citrate pH 5.3, 20% MPD, 0.05% ethyl acetate, 4 °C; protein buffer 30 mM Tris-HCl pH 7.5, 70 mM NaCl, 2 mM β-mercaptoethanol, 1 mM EDTA. Particulars: protein: recombinant; chain copies: 2; blunt; self-complementary, 2 copies of the same strand.
hTop2βcore (human topoisomerase IIβ catalytic core), sequence (Q02880 450-1206): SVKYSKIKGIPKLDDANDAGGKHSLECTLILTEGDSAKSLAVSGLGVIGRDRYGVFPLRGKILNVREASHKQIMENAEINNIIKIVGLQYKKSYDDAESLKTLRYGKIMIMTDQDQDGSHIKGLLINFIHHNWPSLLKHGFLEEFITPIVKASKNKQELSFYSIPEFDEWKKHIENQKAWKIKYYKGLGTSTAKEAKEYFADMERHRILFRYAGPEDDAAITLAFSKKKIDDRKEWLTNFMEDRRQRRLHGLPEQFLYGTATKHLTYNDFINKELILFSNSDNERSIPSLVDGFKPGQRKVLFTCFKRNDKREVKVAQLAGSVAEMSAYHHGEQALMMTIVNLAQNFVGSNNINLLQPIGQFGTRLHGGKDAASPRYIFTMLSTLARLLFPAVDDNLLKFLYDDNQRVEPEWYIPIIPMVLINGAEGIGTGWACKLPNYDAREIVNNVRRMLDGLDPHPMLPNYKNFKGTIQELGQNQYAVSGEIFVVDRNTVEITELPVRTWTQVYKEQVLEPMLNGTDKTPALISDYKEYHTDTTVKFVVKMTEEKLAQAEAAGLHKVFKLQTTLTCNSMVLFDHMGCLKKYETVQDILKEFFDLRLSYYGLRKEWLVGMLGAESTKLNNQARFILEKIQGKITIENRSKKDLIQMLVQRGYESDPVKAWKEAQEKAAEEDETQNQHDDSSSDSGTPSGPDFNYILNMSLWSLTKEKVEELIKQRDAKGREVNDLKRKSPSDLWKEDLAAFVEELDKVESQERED

B1: 20-bp DNA substrate for crystallography (dsDNA)
DNA 1: AGCCGAGCTGCAGCTCGGCT
DNA 2: AGCCGAGCTGCAGCTCGGCT
On to B1, for which the binding result is given as “binds”.
